Changes are numbered by the printed parent chain.
T1: Botulinum neurotoxin serotype C (BoNT/C) (Clostridium botulinum, UniProt P18640 2-1291)
T1 sequence: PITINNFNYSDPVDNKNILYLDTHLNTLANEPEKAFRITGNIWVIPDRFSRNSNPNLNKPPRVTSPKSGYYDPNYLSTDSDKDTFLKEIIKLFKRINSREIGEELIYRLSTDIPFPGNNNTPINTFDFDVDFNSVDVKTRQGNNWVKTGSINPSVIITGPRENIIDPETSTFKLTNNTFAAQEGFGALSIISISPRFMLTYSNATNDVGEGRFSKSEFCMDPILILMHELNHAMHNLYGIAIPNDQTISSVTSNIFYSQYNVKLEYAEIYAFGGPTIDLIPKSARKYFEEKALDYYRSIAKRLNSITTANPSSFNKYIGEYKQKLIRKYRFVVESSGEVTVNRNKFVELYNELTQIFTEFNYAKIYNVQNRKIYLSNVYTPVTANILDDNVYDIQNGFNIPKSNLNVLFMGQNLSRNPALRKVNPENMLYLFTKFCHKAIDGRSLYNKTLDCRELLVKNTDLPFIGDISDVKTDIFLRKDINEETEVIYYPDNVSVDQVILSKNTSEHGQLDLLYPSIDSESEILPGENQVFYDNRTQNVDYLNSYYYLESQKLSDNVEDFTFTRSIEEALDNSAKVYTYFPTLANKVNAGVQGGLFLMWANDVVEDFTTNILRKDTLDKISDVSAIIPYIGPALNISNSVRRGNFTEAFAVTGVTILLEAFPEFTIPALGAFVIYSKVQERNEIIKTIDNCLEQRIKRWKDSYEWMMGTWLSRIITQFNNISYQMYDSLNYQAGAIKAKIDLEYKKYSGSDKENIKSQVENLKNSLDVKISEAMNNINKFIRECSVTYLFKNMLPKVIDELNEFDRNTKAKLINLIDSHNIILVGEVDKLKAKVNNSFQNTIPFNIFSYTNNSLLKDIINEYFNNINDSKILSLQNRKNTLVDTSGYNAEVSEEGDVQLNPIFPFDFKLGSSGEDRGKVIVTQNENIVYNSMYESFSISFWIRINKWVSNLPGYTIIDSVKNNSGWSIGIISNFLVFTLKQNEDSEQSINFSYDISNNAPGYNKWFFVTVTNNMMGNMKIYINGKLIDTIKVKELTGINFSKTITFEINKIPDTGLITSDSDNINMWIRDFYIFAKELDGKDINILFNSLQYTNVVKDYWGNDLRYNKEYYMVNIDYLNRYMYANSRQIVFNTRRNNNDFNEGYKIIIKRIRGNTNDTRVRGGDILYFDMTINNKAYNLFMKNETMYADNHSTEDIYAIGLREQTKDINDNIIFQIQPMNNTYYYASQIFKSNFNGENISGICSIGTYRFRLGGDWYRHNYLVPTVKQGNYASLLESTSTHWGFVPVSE

B1: 4C10.5 IgG (antibody, V domains shown)
VH: QVQLVQSGGGVVQPGRSLRLSCGASRFTFSGFDMHWVRQAPGKGLEWVARISHDGSMADYADSLRGRFTISRDNSKNTLYLQMNSLRVEDTALYYCAKDRWRSGSYPAFEIWGQGTMVTVSS
VL: EIVLTQSPSFLSAFVGDRITITCRASQGISNRLAWYQQKPGKAPNLLIHPASTLQSGVPSRFSGSGSGTDFTLTISSLQPEDFATYYCQQANSFPLTFGGGTKVEIKR
B2: 4C10.22 IgG (antibody, V domains shown)
VH: B1 VH with R26G, T28K, R100P
VL: B1 VL with V15I, H49Y
B3: 4C10.23 IgG (antibody, V domains shown)
VH: B1 VH with R26G, T28K
VL: B1 VL with Q27K, S30G
B4: 4C10.15 IgG (antibody, V domains shown)
VH: B1 VH
VL: B1 VL with Q27K, S30G
B5: 4C10.17 IgG (antibody, V domains shown)
VH: B1 VH
VL: B1 VL with T53S
B6: 4C10.20 IgG (antibody, V domains shown)
VH: B1 VH with R100P
VL: B1 VL with V15I, S30G, H49Y
B7: 4C10.8 IgG (antibody, V domains shown)
VH: B1 VH with R100P
VL: B1 VL with V15I, H49Y
B8: 4C10.18 IgG (antibody, V domains shown)
VH: B1 VH with V12A
VL: B1 VL with S30G, N92H, S93R

biological target: T1, Botulinum neurotoxin serotype C (BoNT/C); assay: KinExA, IgG

Binder	Kd
B1	0.0651 nM
B2	0.00192 nM
B3	0.00665 nM
B4	0.0122 nM
B5	0.0325 nM
B6	0.00102 nM
B7	0.0035 nM
B8	0.0108 nM

biological target: Botulinum neurotoxin mosaic BoNT/DC (Clostridium botulinum); assay: range-finding KinExA, IgG

Binder	Kd
B1	0.987 nM
B2	0.0604 nM
B3	0.0904 nM
B4	0.112 nM
B5	0.766 nM
B6	0.0166 nM
B7	0.0564 nM
B8	0.109 nM

biological target: Botulinum neurotoxin mosaic BoNT/DC (Clostridium botulinum); assay: KinExA, IgG

Binder	Kd
B1	0.987 nM
B2	0.0604 nM
B3	0.0904 nM
B4	0.112 nM
B5	0.766 nM
B6	0.0166 nM
B7	0.0564 nM
B8	0.109 nM

biological target: T1, Botulinum neurotoxin serotype C (BoNT/C); assay: range-finding KinExA, IgG

Binder	Kd
B1	0.0651 nM
B2	0.00192 nM
B3	0.00665 nM
B4	0.0122 nM
B5	0.0325 nM
B6	0.00102 nM
B7	0.0035 nM
B8	0.0108 nM
